Test results reported in publication PMC314469, “Protein Interaction Networks by Proteome Peptide Scanning” (PLoS Biology, 2004).

Molecular target: T1, Abp1 SH3 (ABP1_YEAST), P15891
T1 chain: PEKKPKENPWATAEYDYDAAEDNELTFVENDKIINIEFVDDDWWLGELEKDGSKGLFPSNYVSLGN
Test: SPOT array

| Binder | normalised SPOT signal, Boehringer light units (BLU); mean over the file's lines of this peptide |
| --- | --- |
| NSLDLNQADNPLRP [YLL019C 65-78] | 23.6 |
| PLDLVKNIKLPAKP [YDL019C 243-256] | 383 |
| PKTSIIYANLPNRP [YMR047C 1028-1041] | 97.2 |
| PESKSPRVTTPLKP [YJR083C 40-53] | 140 |
| NSSATKTPFVRRP [YGR285C 16-28] | 4320 |
| NSSSKKTSSHPSRP [YER047C 483-496] | 73.4 |
| NVTKETKEILPVKP [YCL014W 801-814] | 43 |
| PLKPKMLPIPSKP [YPL243W 529-541] | 14100 |
| NVTDPLAAIYPSRP [YGR237C 285-298] | 40.9 |
| NTMVEMKRKKPVRP [YDR436W 382-395] | 1120 |
| PSYSDTHLHGPFKP [YER134C 18-31] | 80.2 |
| NSAPQLTVPEPSKP [YNL034W 542-555] | 89.3 |
| NSEMASLPISPRP [YDR359C 196-208] | 64.9 |
| NVDDSVLRQKPDKP [YMR032W 377-390] | 116 |
| NSSQRSQLRFPEKP [YNL139C 1491-1504] | 705 |
| PITGDVETNEPTKP [YMR042W 16-29] | 28.9 |
| PGEMLMRIFFPKKP [YBR041W 461-474] | 561 |
| PKPKVQIPGLNRP [YDR266C 579-591] | 38700 |
| NVLFIKIPMFLRP [YGL195W 2278-2290] | 79.2 |
| PEPMKNLTNRPKRP [YNL216W 571-584] | 913 |

| Binder | normalised SPOT signal, Boehringer light units (BLU); mean over the file's lines of this peptide |
| --- | --- |
| PETREASLDIPYKP [YFL011W 29-42] | 16.9 |
| NSLLVLDPTYVKP [YOR198C 294-306] | 14.6 |
| PDEVLTKMNAPQKP [YCR004C 43-56] | 81.4 |
| NSNGPTPAVLPQKP [YDL053C 27-40] | 56 |
| NYSIKYMLLEPSKP [YPL008W 555-568] | 103 |
| NVYKIYNHVMPLKP [YNL236W 155-168] | 0 |
| PANSTNNSNEPIRP [YMR081C 97-110] | 131 |
| PDYIRSIAVHPTKP [YGL137W 97-110] | 51.9 |
| PKIPRLVPHWEKP [YNL009W 115-127] | 520 |
| PFEMVTEVPIPRRP [YGR156W 131-144] | 688 |
| PKQTIHVLEQPDRP [YDR158W 295-308] | 62.2 |
| NSQPVSYPRVSKP [YPL007C 81-93] | 220 |
| PKKRGRKPKDPSKP [YML065W 327-340] | 32.6 |
| PKRRAPPPVPKKP [YIR003W 384-396] | 110000 |
| NSLIIGVDIVPMKP [YCL054W 71-84] | 175 |
| PKMISNRRPVPRRP [YPR091C 655-668] | 5500 |
| PKTMAKIPVSVKP [YGL035C 180-192] | 1630 |
| NSTAAAPIAAPKKP [YGL025C 234-247] | 201 |
| PIANTQYGDIPVRP [YOL004W 624-637] | 67 |
| NSMTGIAQILPTKP [YLR082C 61-74] | 185 |

| Binder | normalised SPOT signal, Boehringer light units (BLU); mean over the file's lines of this peptide |
| --- | --- |
| NVSSSSQPASSRP [YBL081W 344-356] | 136 |
| PLVSSNKQSNPMRP [YER064C 414-427] | 1040 |
| PIIKWFGPLEYKP [YCL044C 243-255] | 85.4 |
| PAKQKTPPSPAKP [YBR102C 23-35] | 557 |
| NYNSNNNAGSPIRP [YGL073W 519-532] | 58.5 |
| PITVEYPNEYPSKP [YDL064W 59-72] | 96.3 |
| NSSFFNQPPVHRP [YPR185W 391-403] | 20.4 |
| PKKPFFTPWKPRP [YNL137C 417-429] | 1330 |
| PLPFELRSKLPTKP [YHL029C 305-318] | 2670 |
| PFKTSSTPTTPERP [YHR182W 754-767] | 138 |
| PIMKFSTPSYKKP [YKL064W 123-135] | 726 |
| NYVALWAKFFPEKP [YGR024C 108-121] | 103 |
| PEMLHVKDHQPGKP [YDR433W 131-144] | 120 |
| PFHVQETMDFPYKP [YLR072W 386-399] | 53 |
| PAGINDSPSPVKP [YGR092W 45-57] | 117 |
| PDLRLTKSGKPKKP [YDR464W 659-672] | 131 |
| PDSSFDKVETPPKP [YDR085C 528-541] | 196 |
| NVTFRRDPNSFRP [YDR091C 569-581] | 363 |
